To fix the notation:
T1: Notch2Long (Notch2 EGF6-EGF12) (human, UniProt Q04721 219-418, biotin via the N-terminal Avi tag (enzymatic biotinylation))
T1 construct: also called N2L protein; hNotch2; not shown: Avi tag, N-terminal, kept
T1 sequence (looked up): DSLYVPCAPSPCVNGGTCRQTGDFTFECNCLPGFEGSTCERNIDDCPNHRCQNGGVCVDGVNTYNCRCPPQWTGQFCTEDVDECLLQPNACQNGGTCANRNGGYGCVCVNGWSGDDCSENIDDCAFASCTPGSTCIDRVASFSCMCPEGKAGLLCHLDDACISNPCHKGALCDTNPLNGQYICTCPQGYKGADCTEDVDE

T2: Notch2NRR (Notch2 NRR domain) (human, UniProt Q04721 1423-1677, biotin on the N-terminal Avi tag (enzymatic))
T2 construct: also called NRR protein; not shown: Avi tag, N-terminal, kept
T2 sequence (looked up): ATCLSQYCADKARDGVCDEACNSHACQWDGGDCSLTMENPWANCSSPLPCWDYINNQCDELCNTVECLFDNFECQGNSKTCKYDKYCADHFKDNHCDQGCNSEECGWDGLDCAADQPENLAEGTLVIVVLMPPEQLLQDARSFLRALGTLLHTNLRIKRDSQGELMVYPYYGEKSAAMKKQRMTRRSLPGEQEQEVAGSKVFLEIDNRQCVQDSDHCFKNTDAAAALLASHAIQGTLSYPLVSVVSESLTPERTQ

T3: Notch2Long (Notch2 EGF6-EGF12) (human, UniProt Q04721 219-418, biotin on the N-terminal Avi tag (enzymatic))
T3 construct: also called N2L protein; hNotch2; not shown: Avi tag, N-terminal, kept
T3 sequence (looked up): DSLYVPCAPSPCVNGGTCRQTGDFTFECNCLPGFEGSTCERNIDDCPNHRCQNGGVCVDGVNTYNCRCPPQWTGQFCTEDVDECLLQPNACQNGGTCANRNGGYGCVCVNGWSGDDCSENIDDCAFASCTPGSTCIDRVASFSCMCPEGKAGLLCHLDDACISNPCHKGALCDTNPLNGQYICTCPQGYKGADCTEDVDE

B1: N2L.EET03.63 (designed binder)
chain: GCGWTLRHCKQDSDCLAGCVCEPKWWCG
B2: N2L.EET03.1867 (designed binder)
chain: GCGWTLRHCKQDSDCLAGCVCEPKWMCG
B3: N2L.EET03.88 (designed binder)
chain: GCGWTLRHCKQDSDCLAGCVCEPVWWCG
B4: N2L.EET03.18 (designed binder)
chain: GCGWTLRHCKQDSDCLAGCVCEPIWWCG
B5: N2L.EET03.30 (designed binder)
chain: GCGWTLKHCKQDSDCLAGCVCEPIWWCG
B6: N2L.EET03.67 (designed binder)
chain: GCGWTLWHCKQDSDCLAGCVCEPKWMCG
B7: N2L.EET03.34 (designed binder)
chain: GCGWTLRHCKQDSDCLAGCVCKPKWTCG
B8: N2L.EET03.58 (designed binder)
chain: GCGWTLWHCKQDSDCLAGCVCEPKWFCG
B9: N2L.EET03.n5 (designed binder)
chain: GCGWTLMHCKQDSDCLAGCVCEPIWWCG
B10: N2N-EET-33 (designed binder)
chain: GCQQRRWGGWQQCKQDSDCLAGCVCGPNGFCG
B11: N2N-EET-45 (designed binder)
chain: GCGQQRWGGWPLCKQDSDCLAGCVCGPNGFCG
B12: N2N-EET-57 (designed binder)
chain: GCRPRWGGWHCKQDSDCLAGCVCGPNGFCG
B13: N2N-EET-n13 displayed on M13 phage (designed binder)
chain: GCGQKRMGGWQWCKQDSDCLAGCVCGPNGFCG
B14: N2N-EET-45 displayed on M13 phage (designed binder)
chain: GCGQQRWGGWPLCKQDSDCLAGCVCGPNGFCG
B15: N2N-EET-33 displayed on M13 phage (designed binder)
chain: GCQQRRWGGWQQCKQDSDCLAGCVCGPNGFCG
B16: N2N-EET-57 displayed on M13 phage (designed binder)
chain: GCRPRWGGWHCKQDSDCLAGCVCGPNGFCG
B17: N2N-EET-63 displayed on M13 phage (designed binder)
chain: GCMPRYGGWHCKQDSDCLAGCVCGPNGFCG
B18: N2N-EET-n3 displayed on M13 phage (designed binder)
chain: GCRPRFKGWTCKQDSDCLAGCVCGPNGFCG
B19: HtrA1_EET76 displayed on M13 phage (designed binder)
chain: GCHRPWWQLWGLCKQDSDCLAGCVCGPNGFCG
B20: HtrA1_CirA38 displayed on M13 phage (designed binder)
chain: WIPCISAALGCSCKNKVCYFLYQICGESCV
B21: HtrA1_HwTx69 displayed on M13 phage (designed binder)
chain: ACKGVFDACTWKNWRQSRSRECCPNAVCSDKHKWCKWKL
notes: Huwentoxin scaffold
B22: HtrA1_CirA65 displayed on M13 phage (designed binder)
chain: WIPCISAALGCSCKNKVCYIFSKHLCGESCV
B23: HtrA1_CnTx83 displayed on M13 phage (designed binder)
chain: ECKGKGAKCSIQWSVYPWKVCCTGSCRSGKC
notes: Conotoxin-MVIIA scaffold
B24: N2L.EET31.32.29 displayed on M13 phage (p3) (designed binder)
chain: GCIKSHLWCPRHEKCLAGCVCEVWIRCG
B25: N2L.EET31.32.21 displayed on M13 phage (p3) (designed binder)
chain: GCIKSHLWCPPSDYCLAGCVCEVWIQCG
B26: N2L.EET31.43.24 displayed on M13 phage (p3) (designed binder)
chain: GCIKSHLWCPKTSDCEAGCICEVWIQCG
B27: N2L.EET31.32 displayed on M13 phage (p3) (designed binder)
chain: GCIKSHLWCPSDERCLAGCVCEVWIQCG
notes: also called N2L.31.L2.32
B28: N2L.EET03.10 displayed on M13 phage (designed binder)
chain: GCGWTLRHCKQDSDCLAGCVCRPIWYCG
B29: N2L.EET31.43.35 displayed on M13 phage (p3) (designed binder)
chain: GCIKSHLWCPPPRRCEAGCICEVWIQCG
B30: N2L.EET31.32.13 displayed on M13 phage (p3) (designed binder)
chain: GCIKSHLWCPRDSDCLAGCVCEVWIQCG
B31: N2L.EET31.32.70 displayed on M13 phage (p3) (designed binder)
chain: GCIRSHLWCPPSASCLAGCVCEVWIQCG
B32: N2L.EET31.32.33 displayed on M13 phage (p3) (designed binder)
chain: GCIKSHLWCPRAEKCLAGCICEVWIQCG
B33: N2L.EET31.43.43 displayed on M13 phage (p3) (designed binder)
chain: GCIRSHVWCKQDSDCEAGCICEIWIQCG
B34: N2L.EET31.32.80 displayed on M13 phage (p3) (designed binder)
chain: GCIRSQLWCPSDERCLAGCVCEVWIKCG
B35: N2L.EET31.43 displayed on M13 phage (p3) (designed binder)
chain: GCIKSHLWCKQDSDCEAGCICEVWIQCG
notes: also called N2L.31.L34.43
B36: N2L.EET31.32.48 displayed on M13 phage (p3) (designed binder)
chain: GCIKSHLWCPGKERCLAGCICEIWIQCG
B37: N2L.EET31.43.30 displayed on M13 phage (p3) (designed binder)
chain: GCIKSHLWCPHGGRCEAGCICEVWIQCG
B38: N2L.EET31.43.18 displayed on M13 phage (p3) (designed binder)
chain: GCIKSHLWCHPKLDCEAGCICEVWIQCG
B39: N2L.EET31.43.75 displayed on M13 phage (p3) (designed binder)
chain: GCIKSHLWCDPRKDCEAGCICEVWIQCG
B40: N2L.EET31.43.64 displayed on M13 phage (p3) (designed binder)
chain: GCIRSHVWCKQDSDCEAGCICEVWVKCG
B41: N2L.EET31.43.78 displayed on M13 phage (p3) (designed binder)
chain: GCIKSHLWCDPRVSCEAGCICEVWIQCG
B42: N2L.EET31.43.88 displayed on M13 phage (p3) (designed binder)
chain: GCIKSHLWCDPRKSCEAGCICEVWIQCG
B43: N2L.EET31.32.85 displayed on M13 phage (p3) (designed binder)
chain: GCVRSHVWCPSDERCLAGCVCEIWIRCG
B44: N2L.EET31.43.73 displayed on M13 phage (p3) (designed binder)
chain: GCVRSHLWCKQDSDCEAGCICEVWIKCG

One experiment has as its target T1, Notch2Long (Notch2 EGF6-EGF12). As to the kind of experiment: SPR. The conditions noted are these: both partners purified.
On to B1, for which the Kd turned out to be 44.8 µM.
The molecule B2 displayed a dissociation constant Kd of 9.5 µM.
Same read-out and setting: in the case of B3 it was 8.8 µM; in that of B4, 8.9 µM.
The same measure, in the same setting: for B5 the value was 13.1 µM; for B6, 15.4 µM; for B7, 8.6 µM.
B8 returned a Kd of 8.2 µM.
Same read-out and setting: in the case of B9 it was 13.2 µM.

In a further experiment the target is T2, Notch2NRR (Notch2 NRR domain). As to the kind of experiment: SPR. The settings on record: both partners purified.
For the molecule B10, the affinity, expressed as Kd, was 55.6 µM.
The molecule B11 returned a Kd of 55.9 µM.
For the molecule B12, the Kd stood at 132 µM.

The target is the same in the next experiment. As to the kind of experiment: ELISA. The conditions noted are these: one partner purified.
Regarding B13, the ELISA stood at 3.4 and the s/n Ratio turned out to be 53.9.
The matching figures for B14: 3.5 and 14.9.
For B15, the ELISA is 3.6 and the s/n Ratio came to 28.9.
As for B16, the ELISA worked out at 3.8 and the s/n Ratio was 30.9.
B17: the ELISA stood at 1.5 and the s/n Ratio was found to be 21.3.
The matching figures for B18: 2.1 and 33.1.

The target in another experiment is T4, HtrA1 (human, UniProt Q92743 23-480, biotin on lysines (Sulfo-NHS-LC-biotin) for panning and SPR).
T4 construct: also called HtrA1 FL; human full-length HtrA1
T4 sequence (Q92743 23-480): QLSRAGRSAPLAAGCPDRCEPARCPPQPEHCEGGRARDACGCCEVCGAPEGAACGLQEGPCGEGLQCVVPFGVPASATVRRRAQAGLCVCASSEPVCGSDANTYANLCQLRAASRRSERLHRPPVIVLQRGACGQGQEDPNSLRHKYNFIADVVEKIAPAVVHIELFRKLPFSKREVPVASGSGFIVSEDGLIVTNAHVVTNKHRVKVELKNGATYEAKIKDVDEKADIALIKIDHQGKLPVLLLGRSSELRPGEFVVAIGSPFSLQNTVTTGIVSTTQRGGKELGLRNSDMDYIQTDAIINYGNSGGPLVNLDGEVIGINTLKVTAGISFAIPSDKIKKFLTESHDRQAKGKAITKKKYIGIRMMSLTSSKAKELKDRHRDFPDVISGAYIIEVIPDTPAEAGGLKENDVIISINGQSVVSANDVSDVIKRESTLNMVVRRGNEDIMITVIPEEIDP
As to the kind of experiment: ELISA. The conditions noted are these: one partner purified.
On to B19, for which the ELISA is 1 and the s/n Ratio came to 13.7.
B20: the ELISA stood at 2.1 and the s/n Ratio is 31.9.
The matching figures for B21: 0.9 and 9.6.
As to B22, the ELISA stood at 2.2 and the s/n Ratio worked out at 33.9.
As to B23, the ELISA came to 1.1 and the s/n Ratio is 16.1.

The target in the next experiment is T3, Notch2Long (Notch2 EGF6-EGF12). As to the kind of experiment: ELISA. The conditions noted are these: one partner purified.
B24: the ELISA amounted to 2 and the “s/n Ratio” value was 9.3.
Taken in the same sequence, the figures for B25 were 1.8 and 9.1.
The matching figures for B26: 2.1 and 10.5.
The matching figures for B27: 0.5 and 3.7.
As to B28, the ELISA stood at 3 and the “s/n Ratio” value amounted to 48.4.
The matching figures for B29: 2.1 and 11.6.
Taken in the same sequence, the figures for B30 were 2.2 and 10.2.
The matching figures for B31: 1.9 and 7.3.
In the case of B32, the ELISA amounted to 1.9 and the “s/n Ratio” value is 9.3.
Take B33: the ELISA stood at 2 and the “s/n Ratio” value was 10.2.
The matching figures for B34: 2.1 and 7.6.
As to B35, the ELISA amounted to 0.7 and the “s/n Ratio” value turned out to be 5.1.
Taken in the same sequence, the figures for B36 were 1.9 and 7.2.
Taken in the same sequence, the figures for B37 were 2.2 and 10.7.
Taken in the same sequence, the figures for B38 were 2.1 and 10.2.
As for B39, the ELISA worked out at 2.1 and the “s/n Ratio” value came out at 10.3.
The matching figures for B40: 2 and 8.8.
The matching figures for B41: 1.9 and 10.3.
With B42, the ELISA turned out to be 1.9 and the “s/n Ratio” value worked out at 10.2.
The matching figures for B43: 2 and 4.3.
Consider B44, for which the ELISA is 2.3 and the “s/n Ratio” value stood at 11.

(Values after publication PMC10977697 (PLOS ONE, 2024).)
